Results published in patent US10450368 (DUKE UNIVERSITY, dated 2019).

T1: Centromere B (UniProt P07199 1-599)
T1 construct: also called Cent B
T1 sequence: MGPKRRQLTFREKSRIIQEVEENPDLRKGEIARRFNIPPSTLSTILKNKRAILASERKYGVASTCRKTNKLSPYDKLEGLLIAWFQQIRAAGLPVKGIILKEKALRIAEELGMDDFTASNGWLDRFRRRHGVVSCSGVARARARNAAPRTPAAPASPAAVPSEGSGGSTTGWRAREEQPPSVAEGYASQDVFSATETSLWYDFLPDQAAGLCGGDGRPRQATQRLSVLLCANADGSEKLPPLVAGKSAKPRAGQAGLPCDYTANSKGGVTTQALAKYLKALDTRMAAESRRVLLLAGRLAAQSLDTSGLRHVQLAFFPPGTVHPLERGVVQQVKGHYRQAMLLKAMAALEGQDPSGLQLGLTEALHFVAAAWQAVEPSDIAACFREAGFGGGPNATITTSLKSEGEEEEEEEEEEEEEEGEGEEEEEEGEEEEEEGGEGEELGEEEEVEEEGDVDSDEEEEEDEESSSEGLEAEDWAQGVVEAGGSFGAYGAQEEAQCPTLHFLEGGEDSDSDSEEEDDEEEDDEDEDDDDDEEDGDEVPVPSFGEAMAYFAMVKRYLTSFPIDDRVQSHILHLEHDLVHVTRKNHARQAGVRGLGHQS

T2: Jo-1 (UniProt P12081 1-509)
T2 sequence: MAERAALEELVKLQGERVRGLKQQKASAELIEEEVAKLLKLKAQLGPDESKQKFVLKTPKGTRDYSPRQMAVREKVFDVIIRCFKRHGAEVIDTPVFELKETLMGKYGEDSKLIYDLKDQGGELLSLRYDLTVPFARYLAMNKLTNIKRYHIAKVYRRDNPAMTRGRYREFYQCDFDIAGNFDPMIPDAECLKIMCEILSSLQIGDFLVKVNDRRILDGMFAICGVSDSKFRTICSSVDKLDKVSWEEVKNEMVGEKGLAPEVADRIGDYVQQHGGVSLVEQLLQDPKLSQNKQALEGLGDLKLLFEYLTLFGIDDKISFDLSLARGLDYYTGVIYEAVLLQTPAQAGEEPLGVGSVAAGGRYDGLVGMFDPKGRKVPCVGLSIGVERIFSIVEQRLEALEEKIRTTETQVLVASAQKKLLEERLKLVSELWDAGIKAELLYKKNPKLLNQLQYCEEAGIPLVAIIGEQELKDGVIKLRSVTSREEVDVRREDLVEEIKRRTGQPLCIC

T3: Scl-70 (UniProt P11387 1-765)
T3 sequence: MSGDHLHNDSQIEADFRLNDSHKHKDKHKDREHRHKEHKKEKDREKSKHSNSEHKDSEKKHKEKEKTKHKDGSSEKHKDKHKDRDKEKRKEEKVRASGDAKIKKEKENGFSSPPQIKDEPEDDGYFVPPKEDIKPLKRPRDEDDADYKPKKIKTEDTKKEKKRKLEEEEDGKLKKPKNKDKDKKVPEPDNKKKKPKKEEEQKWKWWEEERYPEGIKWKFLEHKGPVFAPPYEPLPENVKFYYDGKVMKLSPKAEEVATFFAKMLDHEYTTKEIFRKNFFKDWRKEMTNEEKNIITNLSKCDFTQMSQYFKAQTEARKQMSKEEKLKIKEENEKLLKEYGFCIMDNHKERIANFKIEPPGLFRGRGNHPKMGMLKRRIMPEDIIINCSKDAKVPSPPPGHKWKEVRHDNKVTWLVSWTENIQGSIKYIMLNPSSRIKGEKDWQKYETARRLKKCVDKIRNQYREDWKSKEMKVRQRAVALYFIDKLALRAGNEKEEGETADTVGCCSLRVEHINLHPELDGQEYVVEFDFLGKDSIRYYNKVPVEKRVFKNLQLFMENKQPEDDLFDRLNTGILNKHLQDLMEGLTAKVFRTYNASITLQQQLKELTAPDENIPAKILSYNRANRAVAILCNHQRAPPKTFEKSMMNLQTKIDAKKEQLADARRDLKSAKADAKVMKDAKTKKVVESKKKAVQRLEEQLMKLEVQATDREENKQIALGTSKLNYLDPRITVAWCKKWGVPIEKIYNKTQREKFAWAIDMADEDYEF

T4: STUB-1 (human, UniProt Q9UNE7 1-303)
T4 sequence: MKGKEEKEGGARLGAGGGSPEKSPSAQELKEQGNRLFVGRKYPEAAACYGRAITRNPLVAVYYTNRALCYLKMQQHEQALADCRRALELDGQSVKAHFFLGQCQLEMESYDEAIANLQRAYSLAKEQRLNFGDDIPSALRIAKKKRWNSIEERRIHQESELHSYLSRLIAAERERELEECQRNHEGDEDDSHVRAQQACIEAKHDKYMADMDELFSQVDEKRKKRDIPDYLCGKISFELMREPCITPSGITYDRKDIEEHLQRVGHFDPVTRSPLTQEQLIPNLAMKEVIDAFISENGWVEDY


Assays:
[1] = biological target: T5, HIV-1 CH505 transmitted/founder gp120 Env (HIV-1); assay: direct-binding ELISA (OD450), panel 'CH505.TF gp120'
T5 construct: domain: gp120; also called CH505.TF gp120; CH505 TF gp120 Env

SSA = biological target: T6, SSA; assay: AtheNA, Ab 6.25 ug/ml
T6 construct: also called SSA (Ro)

Sm (Smith antigen) = biological target: T7, Sm (Smith antigen); assay: AtheNA, Ab 6.25 ug/ml
T7 construct: Protein complex

RNP (ribonucleoprotein) = biological target: T8, RNP (ribonucleoprotein); assay: AtheNA, Ab 6.25 ug/ml
T8 construct: Protein-RNA complex

Centromere B = biological target: T1, Centromere B; assay: AtheNA, Ab 6.25 ug/ml
Jo-1 = biological target: T2, Jo-1; assay: AtheNA, Ab 6.25 ug/ml
Scl-70 = biological target: T3, Scl-70; assay: AtheNA, Ab 6.25 ug/ml
Histones = biological target: T9, Histones; assay: AtheNA, Ab 6.25 ug/ml
T9 construct: Mixture of proteins

STUB-1 = biological target: T4, STUB-1; assay: ProtoArray human protein microarray

Row | Binder | EC50 (read off the curve) [1] [µg/mL] | AtheNA signal (SSA) | AtheNA signal (Sm (Smith antigen)) | AtheNA signal (RNP (ribonucleoprotein)) | AtheNA signal (Centromere B) | AtheNA signal (Jo-1) | AtheNA signal (Scl-70) | AtheNA signal (Histones) | binding result (STUB-1)
1 | CH493 (antibody, V domains shown, also called CH235.9; DH493) VH: QVRLLQYGGGVKRPGASMTISCVASGYNFNDYYIHWVRQAPGQGLELMGWIDPSGGRTDYAGAFGDRVSMYRDKSMNTLYMDLRSLRSGDTAMYYCVRNVGTAGSLLHYDHWGLGVMVTVSS VL: EIVLTQSPATLSVSPGERVTLSCRASQSVRNNLAWYRQKRGQAPRLLIYGASTRATGIPARFSGSGSGTEFTLTISSMQSEDFAVYYCQQYNNWWTFGQGTKVEIK | ~0.7 | – | – | – | – | – | – | – | –
2 | CH557 (antibody, V domains shown, also called CH235.12; CH557_4A/293i) VH: QVRLAQYGGGVKRLGATMTLSCVASGYTFNDYYIHWVRQAPGQGFELLGYIDPANGRPDYAGALRERLSFYRDKSMETLYMDLRSLRYDDTAMYYCVRNVGTAGSLLHYDHWGSGSPVIVSS VL: EIVLTQSPATLSASPGERVTLTCRASRSVRNNVAWYQHKGGQSPRLLIYDASTRAAGVPARFSGSASGTEFTLAISNLESEDFTVYFCLQYNNWWTFGQGTRVDIK | – | 4 relative luminescence units | 4 relative luminescence units | 4 relative luminescence units | 11 relative luminescence units | 5 relative luminescence units | 3 relative luminescence units | 4 relative luminescence units | no binding
